Measurements published in the supplement of paper PMC9112550, “Optimization of the antimicrobial peptide Bac7 by deep mutational scanning” (BMC Biology, 2022).

Each sequence was assayed on Escherichia coli TOP10 (assay: shrunken log2 fold change of peptide-encoding DNA abundance (4.5 h post-induction vs induction); higher = less antimicrobial activity (less host growth inhibition)). Details: time post-induction: 4.5 h; library: site-saturation at positions 5, 18, 19, 20.
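Further: peptides expressed intracellularly from a pBAD plasmid library in pooled LB shake-flask culture, induced with 0.3% L-arabinose, DNA abundance read by NGS, three biological replicates, DESeq2 with apeglm shrinkage.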

Sequence	shrunken log2 fold change
RRIRSRPPRLPRPRPRPREMPRP	0.159
RRIRVRPPRLPRPRPRPYITPRP	-0.77
RRIRTRPPRLPRPRPRPNNWPRP	-0.12
RRIRIRPPRLPRPRPRPLTLPRP	-0.22
RRIRHRPPRLPRPRPRPNPLPRP	-0.0904
RRIRARPPRLPRPRPRPHEIPRP	-0.107
RRIRFRPPRLPRPRPRPQRSPRP	-0.105
RRIRIRPPRLPRPRPRPNRKPRP	0.00157
RRIRFRPPRLPRPRPRPYYCPRP	-0.74
RRIRSRPPRLPRPRPRPEVMPRP	0.104
RRIRMRPPRLPRPRPRPIGIPRP	-0.0706
RRIRIRPPRLPRPRPRPNHIPRP	-1.16
RRIRDRPPRLPRPRPRPKWRPRP	0.344
RRIRARPPRLPRPRPRPGNQPRP	-0.0242
RRIRYRPPRLPRPRPRPDKLPRP	-0.0621
RRIRSRPPRLPRPRPRPLLIPRP	-0.0597
RRIRPRPPRLPRPRPRPEGAPRP	0.713
RRIRVRPPRLPRPRPRPLLHPRP	-0.114
RRIRGRPPRLPRPRPRPEGFPRP	1.56
RRIRMRPPRLPRPRPRPDGFPRP	0.0516

Sequence	shrunken log2 fold change
RRIRQRPPRLPRPRPRPMCCPRP	0.0301
RRIRWRPPRLPRPRPRPDVHPRP	-0.0103
RRIRRRPPRLPRPRPRPLTRPRP	0.234
RRIRARPPRLPRPRPRPSAWPRP	0.797
RRIRHRPPRLPRPRPRPHDMPRP	-0.291
RRIRHRPPRLPRPRPRPCREPRP	0.0163
RRIRQRPPRLPRPRPRPPGMPRP	0.256
RRIRGRPPRLPRPRPRPRCNPRP	0.551
RRIRPRPPRLPRPRPRPQTHPRP	-0.272
RRIRKRPPRLPRPRPRPDFYPRP	-0.0302
RRIRNRPPRLPRPRPRPEEEPRP	-0.00134
RRIRHRPPRLPRPRPRPVSSPRP	-0.0295
RRIRMRPPRLPRPRPRPIKLPRP	0.0649
RRIRFRPPRLPRPRPRPGNFPRP	-0.133
RRIRGRPPRLPRPRPRPRFPPRP	0.412
RRIRVRPPRLPRPRPRPEDWPRP	0.354
RRIRNRPPRLPRPRPRPRVEPRP	0.345
RRIRMRPPRLPRPRPRPRTCPRP	0.00872
RRIRCRPPRLPRPRPRPPNCPRP	0.0348
RRIRDRPPRLPRPRPRPFSQPRP	-0.172

Sequence	shrunken log2 fold change
RRIRNRPPRLPRPRPRPHSWPRP	0.00366
RRIRWRPPRLPRPRPRPLYAPRP	0.188
RRIRPRPPRLPRPRPRPYPRPRP	0.0824
RRIRMRPPRLPRPRPRPANYPRP	-0.394
RRIRTRPPRLPRPRPRPKVAPRP	0.0317
RRIRCRPPRLPRPRPRPACFPRP	0.0497
RRIRCRPPRLPRPRPRPVQWPRP	0.116
RRIRWRPPRLPRPRPRPQYMPRP	-0.164
RRIRQRPPRLPRPRPRPDMDPRP	-0.0896
RRIRQRPPRLPRPRPRPLVTPRP	-0.122
RRIRQRPPRLPRPRPRPSYQPRP	-0.635
RRIRLRPPRLPRPRPRPWMWPRP	0.154
RRIRFRPPRLPRPRPRPAQIPRP	-0.00279
RRIRPRPPRLPRPRPRPDMCPRP	0.00204
RRIRHRPPRLPRPRPRPFDLPRP	-0.211
RRIRARPPRLPRPRPRPCKLPRP	-0.693
RRIRLRPPRLPRPRPRPFIQPRP	-0.418
RRIRQRPPRLPRPRPRPLYMPRP	-0.198
RRIRIRPPRLPRPRPRPWSQPRP	-0.738
RRIRVRPPRLPRPRPRPMDWPRP	-0.138
